Test results as given in US20170327577A1, “METHODS OF CONSTRUCTING AMINO TERMINAL IMMUNOGLOBULIN FUSION PROTEINS AND COMPOSITIONS THEREOF” (The California Institute for Biomedical Research, priority 2014, published 2017).

Legend:
[1] = biological target: leptin receptor (UniProt P48357); test: cell-based or functional assay
[2] = biological target: T1, relaxin receptor (LGR7) (UniProt Q9HBX9); test: cell-based or functional assay
T1 sequence (looked up): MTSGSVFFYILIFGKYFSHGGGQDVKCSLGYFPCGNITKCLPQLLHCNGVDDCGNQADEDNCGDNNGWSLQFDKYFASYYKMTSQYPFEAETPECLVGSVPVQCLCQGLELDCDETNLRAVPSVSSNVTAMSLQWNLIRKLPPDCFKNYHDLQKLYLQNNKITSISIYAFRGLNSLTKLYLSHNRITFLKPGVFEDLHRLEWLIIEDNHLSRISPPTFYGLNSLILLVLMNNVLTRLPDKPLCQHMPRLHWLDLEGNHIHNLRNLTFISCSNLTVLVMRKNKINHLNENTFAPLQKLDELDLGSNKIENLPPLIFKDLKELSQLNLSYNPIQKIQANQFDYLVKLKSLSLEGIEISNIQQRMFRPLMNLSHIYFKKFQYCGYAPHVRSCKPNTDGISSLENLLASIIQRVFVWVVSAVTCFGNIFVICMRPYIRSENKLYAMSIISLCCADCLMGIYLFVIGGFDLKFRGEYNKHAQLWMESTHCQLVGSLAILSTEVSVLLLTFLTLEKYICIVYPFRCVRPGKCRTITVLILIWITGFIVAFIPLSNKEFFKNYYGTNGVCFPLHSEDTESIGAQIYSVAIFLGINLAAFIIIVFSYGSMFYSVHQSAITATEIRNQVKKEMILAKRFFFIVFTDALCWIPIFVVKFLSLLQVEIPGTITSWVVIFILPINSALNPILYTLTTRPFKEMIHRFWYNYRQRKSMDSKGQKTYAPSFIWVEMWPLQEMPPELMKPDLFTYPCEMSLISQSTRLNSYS

[3] = biological target: T2, GLP-2 receptor (GLP-2R) (Homo sapiens, UniProt O95838); test: GLP-2 receptor activation, CRE-luciferase reporter assay in HEK293 cells; assay type: cell-based; settings: Example 18; HEK293 GLP-2R CRE-Luc, 24 hours
T2 sequence (O95838 1-553): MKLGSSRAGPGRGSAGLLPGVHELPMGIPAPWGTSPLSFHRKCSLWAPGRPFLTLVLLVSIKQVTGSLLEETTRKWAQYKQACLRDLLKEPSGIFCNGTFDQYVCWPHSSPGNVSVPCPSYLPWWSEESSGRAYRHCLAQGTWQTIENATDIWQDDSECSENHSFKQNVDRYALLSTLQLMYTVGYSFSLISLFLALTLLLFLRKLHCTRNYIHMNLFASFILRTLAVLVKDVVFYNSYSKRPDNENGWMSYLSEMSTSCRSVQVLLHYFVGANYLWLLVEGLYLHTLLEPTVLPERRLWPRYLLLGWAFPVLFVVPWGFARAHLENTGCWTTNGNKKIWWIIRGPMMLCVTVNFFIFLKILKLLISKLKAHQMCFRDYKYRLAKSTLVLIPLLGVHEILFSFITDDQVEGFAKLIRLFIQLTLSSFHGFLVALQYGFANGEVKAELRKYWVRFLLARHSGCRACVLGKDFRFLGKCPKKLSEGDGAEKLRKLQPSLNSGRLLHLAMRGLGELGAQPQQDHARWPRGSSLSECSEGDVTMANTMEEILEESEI
Procedure: Luminescence intensities were then measured using One-Glo (Promega) luciferase reagent by following manufacturer's instruction. The EC50 values were determined by fitting data into a logistic sigmoidal function: y=A2+(A1-A2)/(1+(x/x0)p), where A1 is the initial value, A2 is the final value, x0 is the inflection point of the curve, and p is the power. Data was analyzed using GraphPad Prism 6 software.

[4] = biological target: GLP-2 receptor (UniProt O95838); test: cell-based or functional assay
[5] = biological target: relaxin receptor (LGR8) (Homo sapiens, UniProt Q8WXD0); test: cell-based or functional assay
[6] = biological target: GLP-1 receptor (UniProt P43220); test: cell-based or functional assay
[7] = biological target: glucagon receptor (UniProt P47871); test: cell-based or functional assay

Sequence of palivizumab(NH, CEXGGGGS)-relaxin2(single) and palivizumab light chain (heavy): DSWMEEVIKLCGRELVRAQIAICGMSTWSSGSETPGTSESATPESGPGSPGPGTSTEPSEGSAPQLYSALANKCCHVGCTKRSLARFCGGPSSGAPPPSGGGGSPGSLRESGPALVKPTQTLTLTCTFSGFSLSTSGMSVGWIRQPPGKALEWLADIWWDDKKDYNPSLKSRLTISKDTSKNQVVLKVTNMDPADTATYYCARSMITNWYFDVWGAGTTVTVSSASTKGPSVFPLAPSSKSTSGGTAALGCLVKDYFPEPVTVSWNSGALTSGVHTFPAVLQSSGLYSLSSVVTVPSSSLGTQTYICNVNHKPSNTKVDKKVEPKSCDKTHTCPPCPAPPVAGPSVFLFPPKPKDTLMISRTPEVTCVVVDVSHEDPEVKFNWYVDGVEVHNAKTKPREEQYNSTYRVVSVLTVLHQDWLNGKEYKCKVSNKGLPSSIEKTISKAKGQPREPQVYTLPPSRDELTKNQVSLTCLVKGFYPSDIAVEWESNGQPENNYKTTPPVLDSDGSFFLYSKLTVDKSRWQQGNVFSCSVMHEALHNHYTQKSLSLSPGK
Sequence of palivizumab(NH, CEXGGGGS)-relaxin2(single) and palivizumab light chain (light): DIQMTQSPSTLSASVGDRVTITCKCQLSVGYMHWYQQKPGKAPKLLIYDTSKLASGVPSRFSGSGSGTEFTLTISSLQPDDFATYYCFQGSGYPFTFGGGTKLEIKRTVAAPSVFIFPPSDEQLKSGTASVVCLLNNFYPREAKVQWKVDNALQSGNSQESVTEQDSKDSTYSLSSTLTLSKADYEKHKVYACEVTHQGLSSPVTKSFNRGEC
Sequence of relaxin receptor (LGR8) (Q8WXD0 whole entry): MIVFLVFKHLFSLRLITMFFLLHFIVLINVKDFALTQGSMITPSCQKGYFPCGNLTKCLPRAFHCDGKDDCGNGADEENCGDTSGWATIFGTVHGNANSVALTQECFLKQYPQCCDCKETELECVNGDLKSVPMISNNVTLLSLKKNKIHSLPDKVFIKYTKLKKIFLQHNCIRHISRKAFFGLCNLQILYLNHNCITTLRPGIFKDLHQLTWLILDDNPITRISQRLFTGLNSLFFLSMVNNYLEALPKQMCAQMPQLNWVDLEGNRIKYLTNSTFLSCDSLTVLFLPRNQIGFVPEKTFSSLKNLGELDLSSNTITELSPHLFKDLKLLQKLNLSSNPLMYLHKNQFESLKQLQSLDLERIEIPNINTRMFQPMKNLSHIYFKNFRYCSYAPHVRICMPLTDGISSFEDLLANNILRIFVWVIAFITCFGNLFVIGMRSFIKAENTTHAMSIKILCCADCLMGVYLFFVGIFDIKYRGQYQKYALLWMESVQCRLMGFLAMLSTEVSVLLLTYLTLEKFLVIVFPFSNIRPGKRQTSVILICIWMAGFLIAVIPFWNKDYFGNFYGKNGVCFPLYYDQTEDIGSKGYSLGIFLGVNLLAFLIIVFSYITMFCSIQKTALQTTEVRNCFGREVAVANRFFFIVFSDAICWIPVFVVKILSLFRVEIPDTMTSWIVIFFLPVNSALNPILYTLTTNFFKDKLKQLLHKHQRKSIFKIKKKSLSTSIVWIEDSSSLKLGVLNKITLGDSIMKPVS
Sequence of palivizumab(NH, CEXGGGGS)-GLP2 and palivizumab(L) (heavy): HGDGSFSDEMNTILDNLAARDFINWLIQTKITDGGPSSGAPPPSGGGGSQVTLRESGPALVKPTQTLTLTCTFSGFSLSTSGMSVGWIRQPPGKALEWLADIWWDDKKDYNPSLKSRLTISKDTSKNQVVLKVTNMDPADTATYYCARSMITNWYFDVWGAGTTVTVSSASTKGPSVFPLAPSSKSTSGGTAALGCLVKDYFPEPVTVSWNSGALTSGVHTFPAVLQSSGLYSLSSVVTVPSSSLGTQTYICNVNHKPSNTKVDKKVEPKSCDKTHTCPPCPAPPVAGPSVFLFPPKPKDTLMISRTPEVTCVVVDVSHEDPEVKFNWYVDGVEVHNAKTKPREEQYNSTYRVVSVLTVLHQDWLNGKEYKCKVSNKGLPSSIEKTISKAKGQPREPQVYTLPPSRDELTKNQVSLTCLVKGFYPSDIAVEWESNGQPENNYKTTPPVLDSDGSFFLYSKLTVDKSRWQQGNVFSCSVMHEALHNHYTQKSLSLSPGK
Sequence of palivizumab(NH, CEXGGGGS)-GLP2 and palivizumab(L) (light): as the sequence (light) above
Sequence of palivizumab (NH, CEXGGGGG)-relaxin2(9GS) and palivizumab light chain (heavy): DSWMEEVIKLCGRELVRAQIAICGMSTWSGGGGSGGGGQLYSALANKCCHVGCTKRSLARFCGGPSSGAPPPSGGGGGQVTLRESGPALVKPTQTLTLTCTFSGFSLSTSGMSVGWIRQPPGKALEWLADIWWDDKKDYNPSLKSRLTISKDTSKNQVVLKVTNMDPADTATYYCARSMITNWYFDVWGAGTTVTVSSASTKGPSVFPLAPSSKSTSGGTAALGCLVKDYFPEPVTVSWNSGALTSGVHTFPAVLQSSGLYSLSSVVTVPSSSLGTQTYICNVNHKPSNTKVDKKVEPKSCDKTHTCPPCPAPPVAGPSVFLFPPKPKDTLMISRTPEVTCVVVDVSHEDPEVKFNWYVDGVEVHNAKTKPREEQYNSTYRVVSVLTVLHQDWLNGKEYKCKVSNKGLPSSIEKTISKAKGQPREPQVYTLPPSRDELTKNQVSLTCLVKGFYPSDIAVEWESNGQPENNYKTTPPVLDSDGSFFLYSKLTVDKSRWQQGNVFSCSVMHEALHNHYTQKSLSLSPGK
Sequence of palivizumab (NH, CEXGGGGG)-relaxin2(9GS) and palivizumab light chain (light): as the sequence (light) above
Sequence of palivizumab fab(NH, CEXGGGGS)-relaxin2(single) and palivizumab light chain (heavy): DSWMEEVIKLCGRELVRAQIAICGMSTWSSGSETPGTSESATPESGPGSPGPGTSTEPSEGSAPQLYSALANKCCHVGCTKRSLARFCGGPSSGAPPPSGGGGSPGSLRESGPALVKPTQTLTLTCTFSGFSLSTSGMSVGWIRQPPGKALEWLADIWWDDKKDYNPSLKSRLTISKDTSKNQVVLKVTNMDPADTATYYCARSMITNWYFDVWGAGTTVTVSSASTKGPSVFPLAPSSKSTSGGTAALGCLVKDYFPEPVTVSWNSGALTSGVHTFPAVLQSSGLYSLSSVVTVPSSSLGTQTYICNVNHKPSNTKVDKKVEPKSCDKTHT
Sequence of palivizumab fab(NH, CEXGGGGS)-relaxin2(single) and palivizumab light chain (light): as the sequence (light) above
Sequence of palivizumab fab(NH, GGGGS3)-relaxin2(9GS) and palivizumab light chain (heavy): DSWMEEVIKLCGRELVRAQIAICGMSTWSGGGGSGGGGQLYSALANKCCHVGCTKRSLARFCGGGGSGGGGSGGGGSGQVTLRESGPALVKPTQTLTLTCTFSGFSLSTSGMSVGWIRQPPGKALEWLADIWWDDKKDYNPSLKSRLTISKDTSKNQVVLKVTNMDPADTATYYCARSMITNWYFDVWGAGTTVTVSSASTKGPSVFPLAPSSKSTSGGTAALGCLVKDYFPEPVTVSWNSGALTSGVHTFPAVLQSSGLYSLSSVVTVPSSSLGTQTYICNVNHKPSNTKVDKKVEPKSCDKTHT
Sequence of palivizumab fab(NH, GGGGS3)-relaxin2(9GS) and palivizumab light chain (light): as the sequence (light) above
Sequence of palivizumab(NH, CEXGGGGG)-relaxin2(GGGPRR) and palivizumab light chain (heavy): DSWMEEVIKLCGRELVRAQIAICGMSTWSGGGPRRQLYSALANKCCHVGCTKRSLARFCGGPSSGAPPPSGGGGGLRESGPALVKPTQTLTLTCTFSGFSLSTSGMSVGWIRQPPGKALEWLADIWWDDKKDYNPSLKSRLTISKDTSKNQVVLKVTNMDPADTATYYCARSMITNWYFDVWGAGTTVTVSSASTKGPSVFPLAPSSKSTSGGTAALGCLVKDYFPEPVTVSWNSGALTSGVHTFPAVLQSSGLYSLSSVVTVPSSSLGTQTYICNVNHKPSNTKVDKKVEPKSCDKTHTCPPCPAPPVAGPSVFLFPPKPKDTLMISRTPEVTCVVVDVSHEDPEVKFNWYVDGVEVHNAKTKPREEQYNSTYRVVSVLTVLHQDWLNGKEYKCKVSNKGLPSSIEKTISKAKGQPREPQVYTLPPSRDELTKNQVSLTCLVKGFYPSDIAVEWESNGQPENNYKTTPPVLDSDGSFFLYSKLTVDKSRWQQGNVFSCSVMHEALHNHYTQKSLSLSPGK
Sequence of palivizumab(NH, CEXGGGGG)-relaxin2(GGGPRR) and palivizumab light chain (light): as the sequence (light) above

“leptin (from UniProt P41159 22-167) (ligand)” was tested, and the EC50, luciferase reporter (FIG. 6) [1] was 0.055 nM.

“palivizumab (NH, CEXGGGGG)-relaxin2(9GS) and palivizumab light chain” showed an EC50, CRE-luciferase reporter in HEK293 cells [2] of 0.48 nM.

“palivizumab (NH, GGGGS3)-relaxin2(9GS) and palivizumab light chain” showed an EC50, CRE-luciferase reporter in HEK293 cells [2] of 0.24 nM.

In the case of “palivizumab (NH, GGGGS3)-relaxin(18GS) and palivizumab light chain”, the EC50, CRE-luciferase reporter in HEK293 cells [2] is reported as 1.3 nM.

In the case of “palivizumab fab(NH, CEXGGGGS)-relaxin2(single) and palivizumab light chain”, the EC50, CRE-luciferase reporter in HEK293 cells [2] is reported as 47.3 nM.

In the case of “palivizumab fab(NH, GGGGS3)-relaxin2(9GS) and palivizumab light chain”, the EC50, CRE-luciferase reporter in HEK293 cells [2] is reported as 5.8 nM.

For “palivizumab(NH, CEXGGGGG)-relaxin2(30GS) and palivizumab light chain”, the EC50, CRE-luciferase reporter in HEK293 cells [2] was 0.208 nM.

“palivizumab(NH, CEXGGGGG)-relaxin2(GGGPRR) and palivizumab light chain” showed an EC50, CRE-luciferase reporter in HEK293 cells [2] of 2 nM.

In the case of “palivizumab(NH, CEXGGGGS)-GLP2 (SEQ ID NO: 218) and palivizumab(L) (SEQ ID NO: 7)”, the EC50 [3] is reported as 0.133 nM.

“palivizumab(NH, CEXGGGGS)-GLP2 and palivizumab(L)” gave an EC50, CRE-luciferase reporter in HEK293 cells [4] of 0.133 nM.

“palivizumab(NH, CEXGGGGS)-relaxin2(single) and palivizumab light chain” gave an EC50, CRE-luciferase reporter in HEK293 cells [2] of 2.5 nM, an EC50, CRE-luciferase reporter in HEK293 cells (FIG. 13) [2] of 2.5 nM and an EC50, CRE-luciferase reporter in HEK293 cells (FIG. 13) [5] of 553 nM.

In the case of “palivizumab(NH, EAAAK)-GLP2 and palivizumab(L)”, the EC50, CRE-luciferase reporter in HEK293 cells [4] is reported as 0.069 nM.

“palivizumab(NH, EAAAK)-relaxin2(GGGPRR) and palivizumab light chain” showed an EC50, CRE-luciferase reporter in HEK293 cells [2] of 3.4 nM.

Substance “palivizumab(NL, EAAAK)-glucagon(2G) and pPalivizumab(NH, GGGGS1)-exendin-4” has an EC50, CRE-luciferase reporter in HEK293 cells [6] of 0.009 nM and an EC50, CRE-luciferase reporter in HEK293 cells [7] of 0.026 nM.

“relaxin-2 (from UniProt P04090 25-185) (ligand)” gave an EC50, CRE-luciferase reporter in HEK293 cells [2] of 0.0121 nM, an EC50, CRE-luciferase reporter in HEK293 cells (FIG. 13) [2] of 0.012 nM and an EC50, CRE-luciferase reporter in HEK293 cells (FIG. 23) [2] of 0.014 nM. For the same substance, the EC50, CRE-luciferase reporter in HEK293 cells (FIG. 13) [5] was 11.2 nM and the EC50, CRE-luciferase reporter in HEK293 cells (FIG. 23) [5] was 11.2 nM.

Substance trastuzumab(CDR3H) Leptin has an EC50, luciferase reporter (FIG. 6) [1] of 0.0448 nM.
